Laboratory results taken from the DeepSol protein solubility set.

Test: soluble on expression in E. coli; label from the status in PepcDB or PDB records

Soluble on expression in E. coli, soluble:
MTYQTIVVAVDGSKEAEWALKKAIQIAKRNGAKLILSHIIDLRGFTTVEAHDYALAERSEQYANELLERYKNEAIAAGLDDVDIAVEFGSPKVKIAKDVAPKYKADLIVCGATGLNAVERLLIGSVSENIVRHAKCDVLVVRTPKE
MLKGFTPWPDELAETYRKNGCWAGETFGDLLRDRAAKYGDRIAITCGNTHWSYRELDTRADRLAAGFQKLGIQQKDRVVVQLPNIKEFFEVIFALFRLGALPVFALPSHRSSEITYFCEFAEAAAYIIPDAYSGFDYRSLARQVQSKLPTLKNIIVAGEAEEFLPLEDLHTEPVKLPEVKSSDVAFLQLSGGSTGLSKLIPRTHDDYIYSLKRSVEVCWLDHSTVYLAALPMAHNYPLSSPGVLGVLYAGGRVVLSPSPSPDDAFPLIEREKVTITALVPPLAMVWMDAASSRRDDLSSLQVLQVGGAKFSAEAARRVKAVFGCTLQQVFGMAEGLVNYTRLDDPEEIIVNTQGKPMSPYDESRVWDDHDRDVKPGETGHLLTRGPYTIRGYYKAEEHNAASFTEDGFYRTGDIVRLTRDGYIVVEGRAKDQINRGGEKVAAEEVENHLLAHPAVHDAAMVSMPDQFLGERSCVFIIPRDEAPKAAELKAFLRERGLAAYKIPDRVEFVESFPQTGVGKVSKKALREAISEKLLAGFKK
MSLAKQPIDLLIQPKWRIIDQSSLGPYFDAKQSFAIDDTLCASVGKGLSPATARSWVHHDTIVLGIQDTRLPYLQEGISLLEEAGYQAIVRNSGGLAVVLDSGVLNVSLIFQDKKNGIDIDRGYEAMFELVKRMLSSYDAAIEAYEIKGSYCPGSFDLSIGGRKFAGISQRRLRGGVAVQIYLCADQSGSGRAELIKRFYDTALKDMRGKTKAVYPDIRPETMASLSELLNEDISVQDLMLLLLTQLKELGGEIYQGPLTPAEEEVYEKNLVRMIERNEKVFGEGHHHHHH
MSLSKTRTFLFDLYGVLIKEHGAAQFERVARAVGEPSKNDKLHEVYESLRLDLDAGRVSEVNYWNQIKLLVGLEFLDIQEVIAADYRGLYERDQDMVDYVLSLKAKGHRIGILSNIPEGLAKLLKEHNSEWLDQLDAVTLSCDIGAAKPEPKSFHVALEALGEKAEDVTFIDDRVRNIEAAREEGLSTIHFTGLDSLKESIQEGHHHHHH
MSRKNISLTESLEEYIFRNSVREPDSFLKLRKETGTLAQANMQISPEEGQFLNILTKISGAKRIIEIGTFTGYSSLCFASALPEDGKILCCDVSEEWTNVARKYWKENGLENKIFLKLGSALETLQVLIDSKSAPSWASDFAFGPSSIDLFFLDADKENYPNYYPLILKLLKPGGLLIADNVLWDGSVADLSHQEPSTVGIRKFNELVYNDSLVDVSLVPIADGVSLVRKRLEHHHHHH
TKIAMANFKSAMPIFKSHAYLKELEKTLKPQHFDRVFVFPDFFGLLPNSFLHFTLGVQNAYPRDCGAFTGEITSKHLEELKIHTLLIGHSERRTLLKESPSFLKEKFDFFKSKNFKIVYCIGEELTTREKGFKAVKEFLSEQLENIDLNYPNLVVAYEPIWAIGTKKSASLEDIYLTHGFLKQILNQKTPLLYGGSVNTQNAKEILGIDSVDGLLIGSASWELENFKTIISFL
SGWVWNQFFVLEEYTGTDPLYVGKLHSDMDRGDGSIKYILSGEGAGIVFTIDDTTGDIHAIQRLDREERSQYTLRAQALDRRTGRPMEPESEFIIKIQD
MARLEVPRPATFVTLTGFMGVGKSRIGRELARALMLHFIDLDRYIERRTGISIPDIFRHLGEEAFRRMEKEAVRELVGKDYLVLSLGGGTFMDPESQKALLGRGPVVALWASPETILERAMRKPGERPLLQVENPLERIRTLLEARAPVYRKAHIHVSTDGRRVEEVVEEIVEKLWRHAEARGA

Soluble on expression in E. coli, not soluble:
MGSDKIHHHHHHAQTTDPNQLKNEGNDALNAKNYAVAFEKYSEYLKLTNNQDSVTAYNCGVCADNIKKYKEAADYFDIAIKKNYNLANAYIGKSAAYRDMKNNQEYIATLTEGIKAVPGNATIEKLYAIYYLKEGQKFQQAGNIEKAEENYKHATDVTSKKWKTDALYSLGVLFYNNGADVLRKATPLASSNKEKYASEKAKADAAFKKAVDYLGEAVTLSPNRTEIKQMQDQVKAMIK
MQANAIDFENYELLQDDVCARRIVAAKQKLGKRAIILAHHYQRADVYCHADLTGDSLKLSYLAARTDTEFLVFCGVHFMAEVADILSSSEQTVILPDLSAGCSMADMANLTKVERVWRELAEVLDPDERVTPVTYINSSADLKAFCGQHDGIVCTSSNAVKILQWAFSRREKVLFFPDQHLGRWSGYKMGLSPDEMPVWDFDEPMGGLTPEQIEKARILLWKGHCSVHQMFQPQHILRFRNQYPDGLVISHPECSFEVCKASDYVGSTEYIINTIRAAKSGTRWLVGTELNLVGRIAEEFKAEGKIIQFMSPMVCMCSTMARIDPQHLAWSLENLAEGRVVNQIRVPEPQASLAKLTLEKMLEVSKLEHHHHHH
MAGKWNVLSLLAFRPCQPALPHDNHGGGMDAIYLKLDGIEGESRIKGFENQIKLIAYNHNPTKRESGEARGTYIGGLTLTKPVDLATPGLYEHYCNGKTVKEGVLTLCRRDKGAMLPFIIYTLTNVRISRMSNHGDAEGSATETVDLVYSHIRWDIPALASKSKTRRPLHRQALWR
MLIRVEIPIDAPGIDALLRRSFESDAEAKLVHDLREDGFLTLGLVATDDEGQVVGYVAFSPVDVQGEDLQWVGMAPLAVDEKYRGQGLARQLVYEGLDSLNEFGYAAVVTLGDPALYSRFGFELAAHYDLHCRWPGTESAFQVHRLAEDALEGVTGLVEYHDHFNRF
MGSDKIHHHHHHMTLSDPRFISLNQWLNCYFSDDVTPILISGDASFRRYFRVFAHDTSYIIADSPPALVPIAPFIALSSAYAAAGLTVPKVIASDADQGFMLLSDLGDTQLLSVLTDDNVADYYCRALALLPQVATVVESQDPVSGITQPLPLYDEAFVRRELGIFTEWLLARHLQLELGDEERTLVDESFDLLVKNALAQPKVGMHRDFHSRNLMLKDGGLCVIDFQDAVLGPVTYDAVSLLRDCYIRWPQAMVLELIQQHYQQVLESGHLPEGTSFRQYQSWFDLMGLQRHIKAAGIFARLYYRDNKPAYMADIPLTLAYIVDIARMYPELAPFAAWVESRVIPAFNLPLKQQDKQPGSSR
MGHHHHHHSHLSFHFPPRVTGHPWSLVFCTSRDGFSLQSLYRRMEGCSGPVLLVLRDQDGQIFGAFSSSAIRLSKGFYGTGETFLFSFSPQLKVFKWTGSNSFFVKGDLDSLMMGSGSGRFGLWLDGDLFRGGSSPCPTFNNEVLARQEQFCIQELEAWLLS
MGSDKIHHHHHHMRIGFLSHAGASIYHFRMPIIKALKDRKDEVFVIVPQDEYTQKLRDLGLKVIVYEFSRASLNPFVVLKNFFYLAKVLKNLNLDFIQSAAHKSNTFGILAAKWAKIPYRFALVEGLGSFYIDQGFKANLVRFVINSLYKLSFKFAHQFIFVNESNAEFMRNLGLKENKICVIKSVGINLKKFFPIYVESEKKELFWKNLNIDKKPIVLMIARALWHKGVKEFYESATMLKDKANFVLVGGRDENPSCASLEFLNSGAVHYLGARSDIVELLQNCDIFVLPSYKEGFPVSVLEAKACGKAIVVSDCEGCVEAISNAYDGLWAKTKNAKDLSEKISLLLEDEKLRLNLAKNAAQDALQYDENIIAQRYLKLYDRVIKNV
MGSDKIHHHHHHMFSLEQLEAFMETVESGSFSNAARQLKKAQSVVSQHVMNLEIDCGVELFDRSGRYPVLTAEGSKLLPYARATILQHRRLKHTALSLFSRQSSEVCLAMDEGIPIQRISEIIQLLESDFPNIELEFLSASSIDIIDMVHSGRASTGLIFSELSMPSSIDFESIGVIEFDLYVASSHPLAKSVAPNMDSLRLYRQLCIRSRNTKTSSFQQVFSPDVWYADNYYVLLELALQGHGWCLLPEHMASSSVSSGNLTRVPIEFEQIGWYANVDVIQHQDKSSLPLLKRLRQLFRELLVGQK
RELIRHGAEVHAVMSEAATKIIHPYAMEFATGNPVITEITGFIEHVELAGEHENKADLILVCPATANTISKIACGIDDTPVTTVVTTAFPHIPIMIAPAMHETMYRHPIVRENIERLKKLGVEFIGPRIEEGKAKVASIDEIVYRVIKKLHKKTLEGKRVL
